Key:
[1] = target: T cell Immunoglobulin- and Mucin domain-containing molecule 3 (TIM3), human, on cells (human) (UniProt Q8TDQ0); assay: flow cytometry; cells not named in the table (Example 5 uses Pfeiffer cells)
[2] = target: T1, T cell Immunoglobulin- and Mucin domain-containing molecule 3 (TIM3), human, on cells (human, UniProt Q8TDQ0 22-301); assay: as above
T1 construct: TIM3 as carried by human cell lines (Pfeiffer, Daudi, CMK) and by primary cells of patients; also called HAVCR2; KIM-3
T1 sequence: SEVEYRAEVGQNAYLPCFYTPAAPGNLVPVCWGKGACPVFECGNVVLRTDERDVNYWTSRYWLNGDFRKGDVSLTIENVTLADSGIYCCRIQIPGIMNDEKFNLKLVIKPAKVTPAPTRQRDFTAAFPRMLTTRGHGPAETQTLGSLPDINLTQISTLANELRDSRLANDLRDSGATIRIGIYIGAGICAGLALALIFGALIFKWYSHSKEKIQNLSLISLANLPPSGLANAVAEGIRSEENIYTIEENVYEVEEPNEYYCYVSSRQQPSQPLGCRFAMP

[3] = target: T1, T cell Immunoglobulin- and Mucin …; assay: cell binding (flow cytometry), Pfeiffer cells
[4] = target: T1, T cell Immunoglobulin- and Mucin …; assay: flow cytometry, PBMCs of AML patient 3, Blast population
[5] = target: T1, T cell Immunoglobulin- and Mucin …; assay: flow cytometry, PBMCs of AML patient 3, CD34+CD38- population
[6] = target: T1, T cell Immunoglobulin- and Mucin …; assay: flow cytometry, TIM3 expressing cell lines
[7] = target: T1, T cell Immunoglobulin- and Mucin …; assay: cell-based or functional assay

Mouse IgG1k-Biotin (antibody)
% Positive for TIM3 [1]: 0.192% | GeoMean (Intensity of TIM3 binding) [1]: 5.06

Mouse IgG1k-BZAP (antibody)
% Positive for TIM3 [1]: 0.501% | GeoMean (Intensity of TIM3 binding) [1]: 5.33

IgG2bk-BZAP (antibody)
% Positive for TIM3 [1]: 0.195% | GeoMean (Intensity of TIM3 binding) [1]: 6.48

Mouse IgG2ak-Biotin (antibody)
% Positive for TIM3 [1]: 0.49% | GeoMean (Intensity of TIM3 binding) [1]: 5.83

B1: 27.12E12-Biotin (antibody, V domains shown)
VH: EVQLQQSGAELVRPGALVKLSCKASGFNIKDYYMYWMKQRPEQGLEWIGWIDPENVKTIYDPKFQGRATLTADTSSNTAYLQLSSLTSEDTAVYYCTRDFGYVGFFDVWGAGTTVTVSS
VL: DIVMTQSQKFMSTSVGDRVSVNCKASQNVGTNVVWYQQKPGQSPKALIYSASYRYSGVPDRFTGSGSGTDFTLTISTVQSEDLAEYFCQQYNSYPLTFGGGTKLEIKR
notes: 27.12E12 (mouse IgG2b,k) biotinylated
% Positive for TIM3 [2]: 96.8% | GeoMean (Intensity of TIM3 binding) [2]: 202

B2: 27.12E12-BZAP (antibody, V domains shown)
VH: EVQLQQSGAELVRPGALVKLSCKASGFNIKDYYMYWMKQRPEQGLEWIGWIDPENVKTIYDPKFQGRATLTADTSSNTAYLQLSSLTSEDTAVYYCTRDFGYVGFFDVWGAGTTVTVSS
VL: DIVMTQSQKFMSTSVGDRVSVNCKASQNVGTNVVWYQQKPGQSPKALIYSASYRYSGVPDRFTGSGSGTDFTLTISTVQSEDLAEYFCQQYNSYPLTFGGGTKLEIKR
notes: Biotinylated 27.12E12 (mouse IgG2b,k) conjugated to streptavidin-saporin (SAv-ZAP)
% Positive for TIM3 [2]: 98.8% | GeoMean (Intensity of TIM3 binding) [2]: 268

B3: 27.2H4 (antibody, IgG1, V domains shown)
VH: EVQLQQSGAELVRPGALVKLSCKASGFNIKHYYIHWVNQRPEQGLEWIGWIDPETGNTIYDPKFQGKASITADTSSSTAYLQLNSLTSEDTAVYCCARGWSYAMDYWGQGTSVIVSS
VL: DIVMTQSHKFMSTSVGDRVSITCKASQDVNTAVAWYQQKPGHSPKLLIYSASYHYTGVPDRFTGSGSGTDFTFTISSVQAEDLAVYYCQQHYSTPWTFGGGTKLEIK
notes: also called 27.2H4 (D2.1)
percentage of cell binding [3]: 75% | percent binding [4]: 1.07% | percent binding [5]: 0.69%

B4: 27.12A6 (antibody, V domains shown)
VH: EVKLVESGGGLVQPGGSLNLSCAASGFTFSSYTMSWVRQTPEKRLEWVAYISSGGHSTYFPDTVKGRFTISRDNAKNTLYLQMSSLKSEDTAVYYCARGGYGNYGPYYNMDYWGQGTSVTVSS
VL: NIMMTQSPSSLAVSAGEKVTMSCKSSQSVLYSSNQKNYLAWYQQKPGQSPKLLIYWASTRESGVPDRFTGSGSGTDFTLTINNVQAEDLAVYYCHQYLSSWTFGGGTKLEIK
notes: also called 27.12A6 (D2.2)
binding result [6]: binds

B5: 6.16F9 (antibody, V domains shown)
VH: EVNLVESGGGLVQPGGSLKLSCAASGFTFSSYTMSWVRQSPEKRLEWVAYTSSSGASTYYPDTVKGRFTISRDNAKNTLHLQMSSLKSEDTAMYYCARGGYGNYGPYYALDYWGQGTSVTVSS
VL: NIMMTQSPSSLAVSAGEKVTMSCKSSQSVLYSSNQKNYLAWYQQKPGQSPKLLIYWASTRESGVPDRFTGSGSETDFTLTISSVQTEDLAVYYCHQYLSSWTFGGGTKLEIK
notes: also called 6.16F9 (D2.4)
binding result [6]: binds

B6: 9.1G12 (antibody, V domains shown)
VH: EVMLVESGGGLVKPGGSLKLSCAASGFTFSSYAMSWVRQTPERKLEWVATISSGGTYTYYPDSVKGRFTISRDNAKNRLYLQMSGLRSEGTAMYYCVRPDYTHDDGGFAYWGQGTLVTVSA
VL: QAVVTQESALTTSPGETVTLTCRSSTGAVTTSNYANWVQEKPDHLFTGLIGGTNNRAPGVPARFSGSLIGDKAALTITGAQTEDEAIYFCALWYSNHWVFGGGTKLTVL
notes: also called 9.1G12.8
percentage of cell binding [3]: 14% | percent binding [4]: 0.67% | IL-6 release from activated CD4+ T cells (ELISA), antibody at 5 ug/ml [7]: > 2 fold reduction | percent binding [5]: 0.23%

B7: 9.1G12.8-BZAP (antibody, V domains shown)
VH: EVMLVESGGGLVKPGGSLKLSCAASGFTFSSYAMSWVRQTPERKLEWVATISSGGTYTYYPDSVKGRFTISRDNAKNRLYLQMSGLRSEGTAMYYCVRPDYTHDDGGFAYWGQGTLVTVSA
VL: QAVVTQESALTTSPGETVTLTCRSSTGAVTTSNYANWVQEKPDHLFTGLIGGTNNRAPGVPARFSGSLIGDKAALTITGAQTEDEAIYFCALWYSNHWVFGGGTKLTVL
notes: Biotinylated 9.1G12 (mouse IgG2b,l) conjugated to streptavidin-saporin (SAv-ZAP); also called 9.1G12-BZAP
% Positive for TIM3 [2]: 97.4% | GeoMean (Intensity of TIM3 binding) [2]: 168

B8: 9.1G12.8-Biotin (antibody, V domains shown)
VH: EVMLVESGGGLVKPGGSLKLSCAASGFTFSSYAMSWVRQTPERKLEWVATISSGGTYTYYPDSVKGRFTISRDNAKNRLYLQMSGLRSEGTAMYYCVRPDYTHDDGGFAYWGQGTLVTVSA
VL: QAVVTQESALTTSPGETVTLTCRSSTGAVTTSNYANWVQEKPDHLFTGLIGGTNNRAPGVPARFSGSLIGDKAALTITGAQTEDEAIYFCALWYSNHWVFGGGTKLTVL
notes: 9.1G12 (mouse IgG2b,l) biotinylated
% Positive for TIM3 [2]: 55.4% | GeoMean (Intensity of TIM3 binding) [2]: 23.1

B9: 7.10F6 (antibody, IgG1, V domains shown)
VH: EVQLVESGGGLVQPGGSLKLSCAASGFIFSGYGMSWVRQTPDKRLELVAIINSNGGSVDYPDSVKGRVTISRDNAKNTLYLQMSSLKSEDTAMYYCARIYYRCMDYWGQGTSVTVSS
VL: NIMMTQSPSSLAVSAGEKVTMSCKSSQSLLYSSNQKNYLAWYQQKPGQSPKLLIYWASARESGVPDRFTGGGSGTDFTLTISSVQAEDLAVYYCHQYLSSYTFGGGTKLEIKR
notes: also called 7.10F6.1; 7.10F6.1-pure
percentage of cell binding [3]: 92% | % Positive for TIM3 [2]: 93.3% | GeoMean (Intensity of TIM3 binding) [2]: 142 | percent binding [4]: 1.33% | IFN-gamma release from activated CD4+ T cells (ELISA), antibody at 5 ug/ml [7]: > 2 fold reduction | percent binding [5]: 0.6%

B10: 33.1G12 (antibody, IgG1, V domains shown)
VH: EVQLQQSGPELVKPGASVKISCKASGYSFTGYLMNWVMQSHGKSLEWIGRINPYNGDIFYNQKFKDKATLTVDKSSSTAHMELRSLASEDSAVYYCARRDENFDYDNAMDYWGQGTSVTL
VL: DIVLTQSPASLAVSLGQRATISCRASESVDIYGNSFMHWYQQKPGQPPKLLIYRASNLESGIPARFRGSGSRTDFTLTIYPVEADDVATYYCQQSNEDPWTFGGGTKLEIK
notes: the printed VH ends early (…GQGTSVT)
binding result [6]: binds

B11: 6.14B9-Biotin (antibody, V domains shown)
VH: DVQLQESGPGLVKPSQSLSLTCTVTGYSITSDYAWNWIRQFPGNKLEWMGYISYSGSISYNPSLKSRISITRDTSKNQFFLQLNSVTTEDTATYYCARSGRLRRDFDYWGQGTTLT
VL: DIQMTQSPSSLSASLGERVSLTCRASQEISGYLSWLQQKPDGTIKRLIYAASTLDSGVPKRFSGSRSGSDYSLTISSLESEDFADYYCLQYASYPLTFGAGTKLELK
notes: 6.14B9 (mouse IgG1,k) biotinylated
% Positive for TIM3 [2]: 48.2% | GeoMean (Intensity of TIM3 binding) [2]: 20.4

B12: 6.14B9-BZAP (antibody, V domains shown)
VH: DVQLQESGPGLVKPSQSLSLTCTVTGYSITSDYAWNWIRQFPGNKLEWMGYISYSGSISYNPSLKSRISITRDTSKNQFFLQLNSVTTEDTATYYCARSGRLRRDFDYWGQGTTLT
VL: DIQMTQSPSSLSASLGERVSLTCRASQEISGYLSWLQQKPDGTIKRLIYAASTLDSGVPKRFSGSRSGSDYSLTISSLESEDFADYYCLQYASYPLTFGAGTKLELK
notes: Biotinylated 6.14B9 (mouse IgG1,k) conjugated to streptavidin-saporin (SAv-ZAP)
% Positive for TIM3 [2]: 43.9% | GeoMean (Intensity of TIM3 binding) [2]: 22.5

B13: 1.7E10 (antibody, V domains shown)
VH: EVKLLESGGGLVQPGGSLKLSCAASGFDFSRYWMSWVRQAPGKGLEWIGEINPDSSTINYTPSLKDKFIISRDNAKNTLFLQMSKVRSEDTALYYCARPSYDGYYGYAMDYWGQGTSVTVSS
VL: DIVLTQSPASLAVSLGQRATISCRASESVDSYGKSFMHWYQQKPGQPPKLLIYRASNLESGIPARFSGSGSRTDFTLTINPVEADDVATYYCQQSNEDPYTFGGGTKLEIKR
IFN-gamma release from activated CD4+ T cells (ELISA), antibody at 5 ug/ml [7]: > 2 fold reduction

B14: 1.7E10.12-Biotin (antibody, V domains shown)
VH: EVKLLESGGGLVQPGGSLKLSCAASGFDFSRYWMSWVRQAPGKGLEWIGEINPDSSTINYTPSLKDKFIISRDNAKNTLFLQMSKVRSEDTALYYCARPSYDGYYGYAMDYWGQGTSVTVSS
VL: DIVLTQSPASLAVSLGQRATISCRASESVDSYGKSFMHWYQQKPGQPPKLLIYRASNLESGIPARFSGSGSRTDFTLTINPVEADDVATYYCQQSNEDPYTFGGGTKLEIKR
notes: 1.7E10 (mouse IgG1,k) biotinylated with the EZ-link Sulfo NHS-LC-Biotinylated kit
% Positive for TIM3 [2]: 99.2% | GeoMean (Intensity of TIM3 binding) [2]: 354

B15: 1.7E10.12-BZAP (antibody, V domains shown)
VH: EVKLLESGGGLVQPGGSLKLSCAASGFDFSRYWMSWVRQAPGKGLEWIGEINPDSSTINYTPSLKDKFIISRDNAKNTLFLQMSKVRSEDTALYYCARPSYDGYYGYAMDYWGQGTSVTVSS
VL: DIVLTQSPASLAVSLGQRATISCRASESVDSYGKSFMHWYQQKPGQPPKLLIYRASNLESGIPARFSGSGSRTDFTLTINPVEADDVATYYCQQSNEDPYTFGGGTKLEIKR
notes: Biotinylated 1.7E10 (mouse IgG1,k) conjugated to streptavidin-saporin (SAv-ZAP)
% Positive for TIM3 [2]: 99.3% | GeoMean (Intensity of TIM3 binding) [2]: 436

— patent publication US20150086574A1 (CELLERANT THERAPEUTICS, published 2015)
